Data as given in publication PMC9247503, “Oligomerization and Spatial Distribution of Kvβ1.1 and Kvβ2.1 Regulatory Subunits” (Frontiers in Physiology, 2022).
Several values for one entry are separate records, joined by “and”; a condition that tells them apart may be missing. Equal values may be shown once.

B1: Kv1.3YFP (natural protein, UniProt P15384 1-525, looked up)
chain: MTVVPGDHLLEPEAAGGGGGDPPQGGCVSGGGCDRYEPLPPALPAAGEQDCCGERVVINISGLRFETQLKTLCQFPETLLGDPKRRMRYFDPLRNEYFFDRNRPSFDAILYYYQSGGRIRRPVNVPIDIFSEEIRFYQLGEEAMEKFREDEGFLREEERPLPRRDFQRQVWLLFEYPESSGPARGIAIVSVLVILISIVIFCLETLPEFRDEKDYPASPSQDVFEAANNSTSGASSGASSFSDPFFVVETLCIIWFSFELLVRFFACPSKATFSRNIMNLIDIVAIIPYFITLGTELAERQGNGQQAMSLAILRVIRLVRVFRIFKLSRHSKGLQILGQTLKASMRELGLLIFFLFIGVILFSSAVYFAEADDPSSGFNSIPDAFWWAVVTMTTVGYGDMHPVTIGGKIVGSLCAIAGVLTIALPVPVIVSNFNYFYHRETEGEEQAQYMHVGSCQHLSSSAEELRKARSNSTLSKSEYMVIEEGGMNHSAFPQTPFKTGNSTATCTTNNNPNSCVNIKKIFTDV
notes: voltage-gated potassium channel Kv1.3 (α subunit); Used as the tetrameric positive control; source: HEK-293, transfected; in cells (FRET) and in lysate (semidenaturing gel)
B2: Kvβ2.1YFP, P62482 1-367 (natural protein)
chain: MYPESTTGSPARLSLRQTGSPGMIYSTRYGSPKRQLQFYRNLGKSGLRVSCLGLGTWVTFGGQITDEMAEHLMTLAYDNGINLFDTAEVYAAGKAEVVLGNIIKKKGWRRSSLVITTKIFWGGKAETERGLSRKHIIEGLKASLERLQLEYVDVVFANRPDPNTPMEETVRAMTHVINQGMAMYWGTSRWSSMEIMEAYSVARQFNLIPPICEQAEYHMFQREKVEVQLPELFHKIGVGAMTWSPLACGIVSGKYDSGIPPYSRASLKGYQWLKDKILSEEGRRQQAKLKELQAIAERLGCTLPQLAIAWCLRNEGVSSVLLGASNAEQLMENIGAIQVLPKLSSSIVHEIDSILGNKPYSKKDYRS
B3: Kvβ2.1CFP (natural protein, mouse (from the prefix m in mKvβ2.1), UniProt P62482 1-367, looked up)
chain: B2 chain
notes: voltage-gated potassium channel regulatory subunit Kvβ2.1, mouse by the prefix m in mKvβ2.1; also called mKvβ2.1 in pECFP-N1; source: HEK-293, transfected; in lysate (co-IP) and in cells or membrane sheets (FRET)
B4: Kvβ2.1YFP (natural protein, mouse (from the prefix m in mKvβ2.1), UniProt P62482 1-367, looked up)
chain: B2 chain
notes: voltage-gated potassium channel regulatory subunit Kvβ2.1, mouse by the prefix m in mKvβ2.1; also called mKvβ2.1 in pEYFP-N1; Kvb2.1 YFP; source: HEK-293, transfected; in cells or membrane sheets (FRET) and in lysate (semidenaturing gel)
B5: Kvβ1.1YFP (natural protein, mouse (from the prefix m in mKvβ1.1), UniProt P63143 1-401, looked up)
chain: MQVSIACTEHNLKSRNGEDRLLSKQSSNAPNVVNAARAKFRTVAIIARSLGTFTPQHHISLKESTAKQTGMKYRNLGKSGLRVSCLGLGTWVTFGGQISDEVAERLMTIAYESGVNLFDTAEVYAAGKAEVILGSIIKKKGWRRSSLVITTKLYWGGKAETERGLSRKHIIEGLKGSLQRLQLEYVDVVFANRPDSNTPMEEIVRAMTHVINQGMAMYWGTSRWSAMEIMEAYSVARQFNMIPPVCEQAEYHLFQREKVEVQLPELYHKIGVGAMTWSPLACGIISGKYGNGVPESSRASLKCYQWLKERIVSEEGRKQQNKLKDLSPIAERLGCTLPQLAVAWCLRNEGVSSVLLGSSTPEQLIENLGAIQVLPKMTSHVVNEIDNILRNKPYSKKDYRS
notes: voltage-gated potassium channel regulatory subunit Kvβ1.1 (splice form 1.1 of Kvβ1), mouse by the prefix m in mKvβ1.1; also called mKvβ1.1 in pEYFP-N1; source: HEK-293, transfected; in cells or membrane sheets (FRET) and in lysate (semidenaturing gel)

Experiments:
[1] = target: the molecule itself; assay: semidenaturing SDS-PAGE with immunoblot; total lysates of transfected HEK-293 cells, not boiled, 8% SDS-PAGE, immunoblot with anti-GFP antibody
[2] = target: T1, Kvβ2.1YFP (mouse (from the prefix m in mKvβ2.1)), P62482; assay: as above; settings: remark: other sources report otherwise
T1 chain: B2 chain

[3] = target: T2, Kvβ2.1CFP (mouse (from the prefix m in mKvβ2.1)), P62482; assay: FRET or BRET; linear unmixing FRET (lux-FRET) on suspensions of living HEK-293 cells in PBS at 37°C, different donor molar ratios; fit of apparent EfD and EfA against xD gives E and n (units per complex); settings: remark: other sources report otherwise
T2 chain: B2 chain

Kvβ1.1YFP = target: B5; assay: as above; settings: partners not purified
Kvβ1.1CFP = target: T3, Kvβ1.1CFP (mouse (from the prefix m in mKvβ1.1), UniProt P63143 1-401); assay: as above; settings: partners not purified
T3 construct: voltage-gated potassium channel regulatory subunit Kvβ1.1 (splice form 1.1 of Kvβ1), mouse by the prefix m in mKvβ1.1; also called mKvβ1.1 in pECFP-N1; Kvb1.1CFP; source: HEK-293, transfected; in lysate (co-IP) and in cells or membrane sheets (FRET)
T3 sequence (looked up): B5 chain

Row | Binder | stoichiometry N [1] | FRET efficiency (E) (Kvβ1.1CFP) [%] | stoichiometry N (Kvβ1.1CFP) | also measured
1 | B1 | 2 and 4 |  |  | 
2 | B2 |  |  |  | stoichiometry N [2]: 2 and 4; FRET efficiency (E) [3]: 22.3%; stoichiometry N [3]: 2.09
3 | B3 |  |  |  | FRET efficiency (E) (Kvβ1.1YFP): 30.4%; stoichiometry N (Kvβ1.1YFP): 1.99
4 | B4 |  | 32.5 | 1.88 | 
5 | B5 | 2 and 4 | 30.2 | 1.93 | 
